Reference: article PMC4843846, “Towards “bionic” proteins: replacement of continuous sequences from HIF-1α with proteomimetics to create functional p300 binding HIF-1α mimics” (Chemical Communications (Cambridge, England), 2016)
Read-outs that look alike come from different tables or passages of the source. Values belong to the molecule of their own block, whether it stands above or below them. Starred links: 1 amine or outer side, 2 acyl side, 3 side chain; linkers in the order of their positions; H or OH if unused. Non-standard residues stand in square brackets, D forms with d. Residues, ends and D or L forms follow the SMILES beside them. No end group written: not given here. *: point of attachment. PEG24 = NCCOCCOCCOCCOCCOCCOCCOCCOCCOCCOCCOCCOCCOCCOCCOCCOCCOCCOCCOCCOCCOCCOCCOCCOCCC(=O)O; FITC = O=C1OC2(c3ccc(O)cc3Oc3cc(O)ccc32)c2ccc(NC(=S)*)cc21; PEG12 = NCCOCCOCCOCCOCCOCCOCCOCCOCCOCCOCCOCCOCCC(=O)O; 4Abz(3-OiBu) = CC(C)COc1cc(C(=O)[*:2])ccc1N[*:1]; PEG8 = NCCOCCOCCOCCOCCOCCOCCOCCOCCC(=O)O; X1 = CC(C)Oc1cc(C(=O)[*:2])ccc1N[*:1]; Ahx = NCCCCCC(=O)O

Columns and labels:
p300 [1] = target: T1, p300 (Homo sapiens, UniProt Q09472); experiment: fluorescence anisotropy competition; details: cited from earlier work
Target sequence in this assay (Q09472 2-2414): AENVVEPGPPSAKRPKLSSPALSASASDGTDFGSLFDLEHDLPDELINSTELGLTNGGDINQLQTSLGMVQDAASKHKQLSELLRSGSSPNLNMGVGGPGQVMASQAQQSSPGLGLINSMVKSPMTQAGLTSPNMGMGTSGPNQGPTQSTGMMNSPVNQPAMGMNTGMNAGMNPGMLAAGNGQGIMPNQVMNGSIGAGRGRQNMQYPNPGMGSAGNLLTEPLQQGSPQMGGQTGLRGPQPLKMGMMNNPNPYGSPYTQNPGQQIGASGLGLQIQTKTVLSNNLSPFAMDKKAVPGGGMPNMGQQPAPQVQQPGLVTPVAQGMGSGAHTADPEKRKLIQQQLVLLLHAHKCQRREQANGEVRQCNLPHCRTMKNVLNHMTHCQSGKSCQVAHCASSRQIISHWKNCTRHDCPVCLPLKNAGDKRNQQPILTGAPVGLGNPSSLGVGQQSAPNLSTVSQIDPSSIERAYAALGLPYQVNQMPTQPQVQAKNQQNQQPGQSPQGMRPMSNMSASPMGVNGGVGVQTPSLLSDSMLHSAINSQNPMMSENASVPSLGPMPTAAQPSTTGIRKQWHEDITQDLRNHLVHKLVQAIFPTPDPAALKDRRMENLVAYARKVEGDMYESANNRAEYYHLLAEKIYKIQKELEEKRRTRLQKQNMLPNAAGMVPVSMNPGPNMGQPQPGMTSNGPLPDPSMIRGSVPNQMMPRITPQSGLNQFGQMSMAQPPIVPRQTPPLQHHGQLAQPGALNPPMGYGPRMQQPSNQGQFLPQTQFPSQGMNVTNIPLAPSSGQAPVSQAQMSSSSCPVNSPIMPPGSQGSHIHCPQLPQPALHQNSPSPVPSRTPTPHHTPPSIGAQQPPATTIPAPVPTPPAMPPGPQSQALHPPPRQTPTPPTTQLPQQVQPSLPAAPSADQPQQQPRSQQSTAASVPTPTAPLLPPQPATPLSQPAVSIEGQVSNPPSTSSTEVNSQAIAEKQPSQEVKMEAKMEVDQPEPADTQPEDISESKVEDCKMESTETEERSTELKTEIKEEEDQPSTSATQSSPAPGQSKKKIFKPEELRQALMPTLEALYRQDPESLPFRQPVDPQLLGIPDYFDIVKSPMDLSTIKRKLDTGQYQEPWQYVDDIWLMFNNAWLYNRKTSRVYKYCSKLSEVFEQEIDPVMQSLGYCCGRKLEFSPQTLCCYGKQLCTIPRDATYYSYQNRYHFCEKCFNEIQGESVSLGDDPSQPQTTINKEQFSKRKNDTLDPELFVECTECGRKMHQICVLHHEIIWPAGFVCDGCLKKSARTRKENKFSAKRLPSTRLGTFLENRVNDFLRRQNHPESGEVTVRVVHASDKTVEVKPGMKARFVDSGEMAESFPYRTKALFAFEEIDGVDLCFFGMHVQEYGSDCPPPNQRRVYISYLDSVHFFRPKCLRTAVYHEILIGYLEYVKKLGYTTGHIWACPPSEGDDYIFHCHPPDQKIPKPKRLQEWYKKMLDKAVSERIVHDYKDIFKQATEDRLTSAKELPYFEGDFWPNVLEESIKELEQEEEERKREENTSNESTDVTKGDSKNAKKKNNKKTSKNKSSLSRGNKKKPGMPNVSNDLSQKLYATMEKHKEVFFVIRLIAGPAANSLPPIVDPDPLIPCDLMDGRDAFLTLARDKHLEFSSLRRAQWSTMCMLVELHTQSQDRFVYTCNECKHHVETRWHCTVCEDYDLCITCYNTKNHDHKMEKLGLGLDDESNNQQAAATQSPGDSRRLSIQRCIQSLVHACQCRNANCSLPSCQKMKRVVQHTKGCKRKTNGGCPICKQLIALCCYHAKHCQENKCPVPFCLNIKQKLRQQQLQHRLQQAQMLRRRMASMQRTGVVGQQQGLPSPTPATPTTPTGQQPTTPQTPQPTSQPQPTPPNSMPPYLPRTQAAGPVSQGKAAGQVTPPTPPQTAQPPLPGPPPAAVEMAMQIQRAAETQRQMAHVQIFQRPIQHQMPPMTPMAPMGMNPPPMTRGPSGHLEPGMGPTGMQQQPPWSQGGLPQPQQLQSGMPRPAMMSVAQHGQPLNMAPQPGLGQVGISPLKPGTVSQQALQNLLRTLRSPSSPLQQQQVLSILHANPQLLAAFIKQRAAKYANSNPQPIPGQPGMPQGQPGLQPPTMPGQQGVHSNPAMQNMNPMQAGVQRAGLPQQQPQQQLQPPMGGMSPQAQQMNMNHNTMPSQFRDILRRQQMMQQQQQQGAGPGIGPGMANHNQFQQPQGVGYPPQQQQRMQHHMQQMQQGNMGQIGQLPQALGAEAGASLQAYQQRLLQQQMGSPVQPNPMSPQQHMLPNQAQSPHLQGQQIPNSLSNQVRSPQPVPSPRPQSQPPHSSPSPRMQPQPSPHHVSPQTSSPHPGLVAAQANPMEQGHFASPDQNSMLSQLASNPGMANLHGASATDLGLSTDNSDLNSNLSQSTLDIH

[2] = target: HIF-1α C-TAD 794-826 (Homo sapiens) (UniProt Q16665); experiment: fluorescence anisotropy; details: cited from earlier work
p53/hDM2 interaction = experiment: fluorescence anisotropy competition assay p53/hDM2; format: binding
Excerpt: At first the lower inhibitory potency of both HIF-1α794–826 and hybrid 2 in comparison to helix mimetic 1 (9.2(±0.9) μM) which we determined previously,[33] might seem counterintuitive. One explanation that might account for this observation is that there may be a non-specific component to PPI inhibition associated with the aromatic oligoamide helix mimetic 1 (supported in part by a non-unity Hill co-efficient for the curve fitting, a property not observed for 2). […] We therefore performed further biophysical analysis. Although we illustrated previously that inhibition of HIF-1α/p300 by 1 was specific to the scaffold and selective in comparison to the eIF4E/4G interaction,[33] we expanded the range of assays here. […] Thus, by adding native amino acid residues from the HIF-1α sequence to the core helix mimetic 1 in hybrid 2, the specificity and selectivity of binding towards target interactions was improved.
Fig. 3 Biophysical screening of helix mimetic 1 and hybrid 2 to profile selectivity; FA competition data for inhibition of p53/hDM2.

p300 [3] = target: T1, p300; design: made in house; details: fluorescence anisotropy direct binding; cited from earlier work
Excerpt: A requirement for optimal linker length is supported by the fact that as the length of the PEG linker in 3a–c increases, so does binding affinity. In spite of the weaker binding affinities observed for 3a–c, the weak binding for HIF794–804 (helix 2) and HIF816– ...
Target sequence in this assay (Q09472 whole entry, species assumed): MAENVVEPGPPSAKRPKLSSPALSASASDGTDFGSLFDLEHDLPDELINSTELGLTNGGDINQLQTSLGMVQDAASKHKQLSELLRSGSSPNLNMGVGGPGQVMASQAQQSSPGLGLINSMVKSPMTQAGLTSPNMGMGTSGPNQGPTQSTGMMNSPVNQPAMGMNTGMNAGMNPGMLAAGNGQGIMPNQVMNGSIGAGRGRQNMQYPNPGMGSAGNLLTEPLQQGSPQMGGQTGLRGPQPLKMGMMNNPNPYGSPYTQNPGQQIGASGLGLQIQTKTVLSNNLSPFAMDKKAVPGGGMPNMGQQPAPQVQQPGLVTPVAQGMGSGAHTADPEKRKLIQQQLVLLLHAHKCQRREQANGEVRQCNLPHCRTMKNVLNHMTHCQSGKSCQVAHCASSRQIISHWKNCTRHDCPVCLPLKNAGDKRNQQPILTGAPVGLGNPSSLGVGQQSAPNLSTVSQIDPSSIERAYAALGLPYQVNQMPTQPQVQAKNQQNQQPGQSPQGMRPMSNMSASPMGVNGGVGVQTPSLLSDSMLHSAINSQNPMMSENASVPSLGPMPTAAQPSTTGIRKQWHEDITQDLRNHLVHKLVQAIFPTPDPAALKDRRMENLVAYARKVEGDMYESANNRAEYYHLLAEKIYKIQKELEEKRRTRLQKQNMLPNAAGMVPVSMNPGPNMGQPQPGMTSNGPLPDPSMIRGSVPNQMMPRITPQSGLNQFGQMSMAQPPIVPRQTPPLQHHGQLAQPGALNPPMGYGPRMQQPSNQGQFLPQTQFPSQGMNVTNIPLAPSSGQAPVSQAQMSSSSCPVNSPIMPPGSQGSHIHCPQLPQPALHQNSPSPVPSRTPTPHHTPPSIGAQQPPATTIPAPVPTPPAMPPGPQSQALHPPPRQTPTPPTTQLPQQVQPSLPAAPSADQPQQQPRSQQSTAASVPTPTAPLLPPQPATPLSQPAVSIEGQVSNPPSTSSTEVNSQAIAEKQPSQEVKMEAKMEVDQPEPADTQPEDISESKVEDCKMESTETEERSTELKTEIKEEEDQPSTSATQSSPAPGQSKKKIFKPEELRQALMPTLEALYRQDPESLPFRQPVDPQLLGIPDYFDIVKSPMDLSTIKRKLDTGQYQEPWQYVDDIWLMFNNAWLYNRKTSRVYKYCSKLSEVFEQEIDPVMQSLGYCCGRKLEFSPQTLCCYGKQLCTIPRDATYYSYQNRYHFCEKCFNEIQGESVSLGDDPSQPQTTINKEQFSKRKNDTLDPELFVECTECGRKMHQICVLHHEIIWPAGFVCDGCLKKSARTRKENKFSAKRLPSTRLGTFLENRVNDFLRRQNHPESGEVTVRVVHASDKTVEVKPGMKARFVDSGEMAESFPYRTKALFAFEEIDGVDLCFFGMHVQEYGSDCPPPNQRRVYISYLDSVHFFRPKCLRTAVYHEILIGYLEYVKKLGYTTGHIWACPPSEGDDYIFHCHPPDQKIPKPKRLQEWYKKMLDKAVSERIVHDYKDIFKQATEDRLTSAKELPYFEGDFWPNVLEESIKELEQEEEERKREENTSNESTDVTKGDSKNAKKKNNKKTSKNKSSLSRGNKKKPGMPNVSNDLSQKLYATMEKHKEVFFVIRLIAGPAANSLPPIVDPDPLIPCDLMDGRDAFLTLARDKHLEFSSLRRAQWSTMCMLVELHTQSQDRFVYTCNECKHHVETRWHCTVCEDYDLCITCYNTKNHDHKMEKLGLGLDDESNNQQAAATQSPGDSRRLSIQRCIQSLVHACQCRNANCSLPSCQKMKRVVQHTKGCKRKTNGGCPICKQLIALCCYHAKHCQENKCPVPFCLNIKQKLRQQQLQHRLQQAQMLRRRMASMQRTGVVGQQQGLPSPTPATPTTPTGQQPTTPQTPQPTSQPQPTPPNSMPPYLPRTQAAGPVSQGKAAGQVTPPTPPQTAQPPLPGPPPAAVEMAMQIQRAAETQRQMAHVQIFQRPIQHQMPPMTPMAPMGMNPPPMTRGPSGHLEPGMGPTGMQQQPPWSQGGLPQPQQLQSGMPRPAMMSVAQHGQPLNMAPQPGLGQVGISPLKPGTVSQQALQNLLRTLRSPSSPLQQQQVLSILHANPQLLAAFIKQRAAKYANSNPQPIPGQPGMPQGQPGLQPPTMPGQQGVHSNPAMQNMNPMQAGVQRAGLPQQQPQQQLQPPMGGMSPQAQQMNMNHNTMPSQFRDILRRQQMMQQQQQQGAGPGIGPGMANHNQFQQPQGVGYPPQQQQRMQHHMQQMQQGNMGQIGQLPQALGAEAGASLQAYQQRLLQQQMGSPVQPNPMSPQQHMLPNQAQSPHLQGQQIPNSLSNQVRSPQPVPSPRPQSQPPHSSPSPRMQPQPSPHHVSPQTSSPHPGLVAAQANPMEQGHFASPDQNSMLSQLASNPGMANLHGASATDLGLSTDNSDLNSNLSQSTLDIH

p300 [4] = target: T1, p300; experiment: fluorescence anisotropy direct binding to p300; design: made in house; details: fluorescein-labelled conjugates
Experimental: The hybrids 2 and 3a–c were then tested in a previously described fluorescence anisotropy p300/HIF-1α competition and p300 binding assays respectively (Fig. 2a).[33]
Fig. 2 Biophysical screening of HIF-1α peptides and hybrids, HIF-1α794–826, 2 and 3a–c (a) fluorescence anisotropy (FA) competition data for inhibition of p300/FITC-HIF-1α C-TAD for HIF-1α794–826 and 2 (b) (FA) binding data for 3a–c to p300 (schematic structure shown below).
Binding assays and protein expression were carried out as previously reported. 2, 3
The helix 2-3 peptide and the helix 2-extended peptide were purchased from Proteogenix,
France and the sequences shown below.
(1 picture or pasted object on this page, not shown here)
Target sequence in this assay (Q09472 whole entry, species assumed): as above

HIF-1α/p300 interaction = target: T2, HIF-1α/p300 interaction (Homo sapiens, UniProt Q09472); design: method as in 2 sources, ref 33 = [33]; PMID 24782431; doi:10.1002/cbic.201400009; Burslem G. M. Kyle H. F. Breeze A. L. Edwards T. A. Nelson A. Warriner S. L. Wilson A. J. ChemBioChem 2014 15 1083 1087 24782431 10.1002/cbic.201400009 PMC4159589 ||| ref 32 = [32]; PMID 26135796; doi:10.1039/c5mb00284b; Kyle H. F. Wickson K. F. Stott J. Burslem G. M. Breeze A. L. Tiede C. Tomlinson D. C. Warriner S. L. Nelson A. Wilson A. J. Edwards T. A. Mol. BioSyst. 2015 11 2738 2749 26135796 10.1039/c5mb00284b; details: fluorescence anisotropy competition; prior truncation studies; read-out: IC50, inhibition of the HIF-1α/p300 interaction by HIF-1α peptides; cited from earlier work
T2 construct: made in house

p300 [5] = target: T1, p300; experiment: fluorescence anisotropy; details: cited from earlier work
Target sequence in this assay (Q09472 2-2414): as the sequence (Q09472 2-2414) above

T2 sequence (Q09472 330-420 limits assumed): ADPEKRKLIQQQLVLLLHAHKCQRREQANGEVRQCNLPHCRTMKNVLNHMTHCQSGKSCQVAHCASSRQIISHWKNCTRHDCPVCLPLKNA
p300 (from UniProt Q09472), sequence (Q09472 2-2414): as the sequence (Q09472 2-2414) above

Molecule: HIF-1α794-815 794-815 (from UniProt Q16665)
IC50 (p300 [1]): > 500 µM

Molecule: p300 (from UniProt Q09472)
Kd [2]: 6.74 µM

Molecule: CC[C@H](C)[C@H](NC(=O)[C@@H]1CCCN1C(=O)[C@H](C)NC(=O)[C@H](CC(N)=O)NC(=O)[C@@H](NC(=O)[C@H](CCC(=O)O)NC(=O)[C@H](CO)NC(=O)[C@H](Cc1ccc(O)cc1)NC(=O)[C@H](CO)NC(=O)[C@@H](NC(=O)[C@H](CC(C)C)NC(=O)[C@H](CCC(N)=O)NC(C)=O)[C@@H](C)O)C(C)C)C(=O)N[C@@H](CCC(N)=O)C(=O)N[C@@H](CO)C(=O)N[C@@H](CCCNC(=N)N)C(=O)N[C@@H](CC(N)=O)C(=O)N[C@@H](CC(C)C)C(=O)N[C@@H](CC(C)C)C(=O)N[C@@H](CCC(N)=O)C(=O)NCC(=O)NCC(=O)Nc1ccc(C(=O)Nc2ccc(C(=O)Nc3ccc(C(=O)NCC(=O)O)cc3OC(C)C)cc2OCC(C)C)cc1OCC(C)C [compound 2] (Ac-QLTSYSEVNAPIQSRNLLQGG[4Abz(3-OiBu)][4Abz(3-OiBu)][X1]G-OH)
IC50 (p53/hDM2 interaction): > 100 µM

Molecule: HIF-1α794-826 794-826 (from UniProt Q16665)
IC50 (p300 [1]): 89 µM

Molecule: FITC-HIF-1α794–826: FITC-labelled HIF-1α794–826 peptide ({FITC}-QLTSYDCEVNAPIQGSRNLLQGEELLRALDQVN; UniProt Q16665 794-826, looked up, fragment)
Kd (p300 [3]): 6.74 ± 0.54 µM

Kd (p300 [4]): > 200 µM
Molecule: CC(C)C[C@H](NC(=O)[C@H](C)NC(=O)[C@H](CCCNC(=N)N)NC(=O)[C@H](CC(C)C)NC(=O)[C@H](CC(C)C)NC(=O)[C@H](CCC(=O)O)NC(=O)[C@H](CCC(=O)O)NC(=O)CCOCCOCCOCCOCCOCCOCCOCCOCCNC(=O)[C@H](C)NC(=O)[C@H](CC(N)=O)NC(=O)[C@@H](NC(=O)[C@H](CCC(=O)O)NC(=O)[C@H](CS)NC(=O)[C@H](CC(=O)O)NC(=O)[C@H](Cc1ccc(O)cc1)NC(=O)[C@H](CO)NC(=O)[C@@H](NC(=O)[C@H](CC(C)C)NC(=O)[C@H](CCC(N)=O)NC(=O)CCCCCNC(=S)Nc1ccc2c(c1)C(=O)OC21c2ccc(O)cc2Oc2cc(O)ccc21)[C@@H](C)O)C(C)C)C(=O)N[C@@H](CC(=O)O)C(=O)N[C@@H](CCC(N)=O)C(=O)N[C@H](C(=O)N[C@@H](CC(N)=O)C(N)=O)C(C)C [3a] ({FITC-Ahx}-QLTSYDCEVNA[PEG8]EELLRALDQVN-NH2)

Molecule: Ac-LGQSMDESGLPQLTSYDCEVNAPIQGSRNLLQGEELLRALDQVN-NH2 [HIF-1α782–826, 42 residue HIF-1α C-TAD peptide]
IC50 (HIF-1α/p300 interaction): 0.59 µM

Molecule: FITC-HIF-1α794-826 794-826 (from UniProt Q16665)
Kd (p300 [5]): 6.74 µM

Molecule: Ac-QLTSYDCEVNAPIQGSRNLLQ-NH 2 (Ac-QLTSYDCEVNAPIQGSRNLLQ-NH2) [HIF-1α794–815, peptide comprising the same residues as the peptidic region of hybrid 2]
IC50 (HIF-1α/p300 interaction): > 500 µM

Kd (p300 [4]): 144 µM
Molecule: CC(C)C[C@H](NC(=O)[C@H](C)NC(=O)[C@H](CCCNC(=N)N)NC(=O)[C@H](CC(C)C)NC(=O)[C@H](CC(C)C)NC(=O)[C@H](CCC(=O)O)NC(=O)[C@H](CCC(=O)O)NC(=O)CCOCCOCCOCCOCCOCCOCCOCCOCCOCCOCCOCCOCCOCCOCCOCCOCCOCCOCCOCCOCCOCCOCCOCCOCCNC(=O)[C@H](C)NC(=O)[C@H](CC(N)=O)NC(=O)[C@@H](NC(=O)[C@H](CCC(=O)O)NC(=O)[C@H](CS)NC(=O)[C@H](CC(=O)O)NC(=O)[C@H](Cc1ccc(O)cc1)NC(=O)[C@H](CO)NC(=O)[C@@H](NC(=O)[C@H](CC(C)C)NC(=O)[C@H](CCC(N)=O)NC(=O)CCCCCNC(=S)Nc1ccc2c(c1)C(=O)OC21c2ccc(O)cc2Oc2cc(O)ccc21)[C@@H](C)O)C(C)C)C(=O)N[C@@H](CC(=O)O)C(=O)N[C@@H](CCC(N)=O)C(=O)N[C@H](C(=O)N[C@@H](CC(N)=O)C(N)=O)C(C)C [3c] ({FITC-Ahx}-QLTSYDCEVNA[PEG24]EELLRALDQVN-NH2)

Kd (p300 [4]): > 200 µM
Molecule: CC(C)C[C@H](NC(=O)[C@H](C)NC(=O)[C@H](CCCNC(=N)N)NC(=O)[C@H](CC(C)C)NC(=O)[C@H](CC(C)C)NC(=O)[C@H](CCC(=O)O)NC(=O)[C@H](CCC(=O)O)NC(=O)CCOCCOCCOCCOCCOCCOCCOCCOCCOCCOCCOCCOCCNC(=O)[C@H](C)NC(=O)[C@H](CC(N)=O)NC(=O)[C@@H](NC(=O)[C@H](CCC(=O)O)NC(=O)[C@H](CS)NC(=O)[C@H](CC(=O)O)NC(=O)[C@H](Cc1ccc(O)cc1)NC(=O)[C@H](CO)NC(=O)[C@@H](NC(=O)[C@H](CC(C)C)NC(=O)[C@H](CCC(N)=O)NC(=O)CCCCCNC(=S)Nc1ccc2c(c1)C(=O)OC21c2ccc(O)cc2Oc2cc(O)ccc21)[C@@H](C)O)C(C)C)C(=O)N[C@@H](CC(=O)O)C(=O)N[C@@H](CCC(N)=O)C(=O)N[C@H](C(=O)N[C@@H](CC(N)=O)C(N)=O)C(C)C [3b] ({FITC-Ahx}-QLTSYDCEVNA[PEG12]EELLRALDQVN-NH2)
